In paper PMC10766783 (Life Science Alliance, 2024):
Read-outs that look alike come from different tables or passages of the source.

Legend:
[1] = molecular target: cemiplimab; assay: BLI; Octet RED96; antibodies captured on anti-human Fc AHC2 tips, PD-1 proteins as analyte at different concentrations; Octet kinetics buffer; 1:1 binding model
[2] = molecular target: camrelizumab; assay: as above
[3] = molecular target: nivolumab; assay: as above
[4] = molecular target: pembrolizumab; assay: as above
Chain of pembrolizumab (heavy, as listed by the source, chain 1 of 2): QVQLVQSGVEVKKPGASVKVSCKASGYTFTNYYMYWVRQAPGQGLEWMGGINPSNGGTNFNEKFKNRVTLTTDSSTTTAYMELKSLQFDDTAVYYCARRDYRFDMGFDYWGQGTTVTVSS
Chain of pembrolizumab (light, as listed by the source, chain 2 of 2): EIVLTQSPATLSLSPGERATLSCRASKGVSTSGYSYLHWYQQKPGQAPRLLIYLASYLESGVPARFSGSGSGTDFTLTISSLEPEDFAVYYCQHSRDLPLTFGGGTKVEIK

[5] = molecular target: T1, chimeric receptor with the extracellular and transmembrane domains of PD-1 and intracellular GFP, on CHO-K1 … (Homo sapiens, UniProt Q15116, N-glycans without core fucose (Fut8 KO host)); assay: flow cytometry on cells; antibodies added to CHO-K1 or CHO-K1 Fut8 KO cells transfected with PD-1 (extracellular and transmembrane domains)-GFP, 30 min on ice; binding as percentage of PD-1 expression in GFP-positive cells; four-parameter logistic fit; details: one partner purified
T1 construct: PD-1, human, extracellular and transmembrane domains; differs in the host and so in the glycans; also called cell surface PD-1 (CHO-K1 Fut8 KO); source: CHO-K1 Fut8 KO, transfected, on cells
T1 sequence (Q15116 whole entry, looked up, stated change not applied, the tested form may be a part): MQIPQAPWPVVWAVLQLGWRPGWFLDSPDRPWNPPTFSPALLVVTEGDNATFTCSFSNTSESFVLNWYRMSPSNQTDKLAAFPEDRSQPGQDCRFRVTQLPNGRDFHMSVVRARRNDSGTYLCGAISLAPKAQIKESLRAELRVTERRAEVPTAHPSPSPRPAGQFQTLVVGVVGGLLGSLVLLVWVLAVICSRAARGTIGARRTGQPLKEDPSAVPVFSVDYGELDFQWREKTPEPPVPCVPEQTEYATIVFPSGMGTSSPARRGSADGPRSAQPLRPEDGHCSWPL

[6] = molecular target: T2, PD-1 on Jurkat-Lucia TCR-hPD-1 cells (Homo sapiens, UniProt Q15116); assay: cell-based or functional assay
T2 sequence (Q15116 25-288): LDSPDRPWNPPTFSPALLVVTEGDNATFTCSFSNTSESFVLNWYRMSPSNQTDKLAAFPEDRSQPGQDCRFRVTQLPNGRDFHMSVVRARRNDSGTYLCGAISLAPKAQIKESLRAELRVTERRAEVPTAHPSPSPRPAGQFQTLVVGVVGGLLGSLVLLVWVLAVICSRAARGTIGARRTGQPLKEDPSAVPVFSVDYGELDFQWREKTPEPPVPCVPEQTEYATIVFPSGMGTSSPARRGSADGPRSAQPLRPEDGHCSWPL

[7] = molecular target: non-fucosylated recombinant PD-1 (PD-1 NF) (human) (UniProt Q15116); assay: ELISA; plate-based ligand blocking: plates coated with 5 ug/ml PD-1, PD-1 NF or PD-1 N58Q; antibodies 1 h at room temperature, washed, then 1 ug/ml PD-L1-Fc-biotin 2 h; streptavidin-HRP
Chain of non-fucosylated recombinant PD-1 (PD-1 NF) (human) (Q15116 24-167): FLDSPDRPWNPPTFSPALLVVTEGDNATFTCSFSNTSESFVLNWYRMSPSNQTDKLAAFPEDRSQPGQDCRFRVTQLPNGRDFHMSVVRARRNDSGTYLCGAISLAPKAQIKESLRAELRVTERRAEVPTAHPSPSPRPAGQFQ

[8] = molecular target: T3, recombinant PD-1 N58Q mutant (human, UniProt Q15116, N58Q); assay: BLI; Octet RED96; antibodies captured on anti-human Fc AHC2 tips, PD-1 proteins as analyte at different concentrations; Octet kinetics buffer; 1:1 binding model; details: both partners purified
T3 construct: PD-1, human, UniProt Q15116, residues 24-167 of the extracellular portion, N58Q; source: Expi293, transiently transfected, purified (Ni Sepharose Excel)
T3 sequence (Q15116 24-167 N58Q): as the sequence (Q15116 24-167) above, with N35Q counted along it

[9] = molecular target: T3, recombinant PD-1 N58Q mutant; assay: ELISA; plate-based ligand blocking: plates coated with 5 ug/ml PD-1, PD-1 NF or PD-1 N58Q; antibodies 1 h at room temperature, washed, then 1 ug/ml PD-L1-Fc-biotin 2 h; streptavidin-HRP; details: both partners purified
[10] = molecular target: T4, full-length PD-1 on CHO-K1 Fut8 KO cells (human, UniProt Q15116, N-glycans without core fucose (Fut8 KO host)); assay: flow cytometry on cells; ligand blocking: PD-1-transfected CHO-K1 or CHO-K1 Fut8 KO cells incubated with antibodies 15 min on ice before PD-L1:SA-PE complexes; four-parameter logistic fit; details: one partner purified
T4 construct: PD-1, human, full length, on transfected cells; also called PD-1 expressed in CHO-K1 Fut8 KO; Fut8-deficient cells; source: CHO-K1 Fut8 KO, transfected, on cells
T4 sequence (Q15116 25-288): as the sequence (Q15116 25-288) above

[11] = molecular target: T2, PD-1 on Jurkat-Lucia TCR-hPD-1 cells

Chain of non-fucosylated recombinant PD-1 (PD-1 NF) (Q15116 24-167): as the sequence (Q15116 24-167) above
Chain of recombinant PD-1 (extracellular portion of human PD-1, residues 24-167) (Q15116 24-167): as above
Chain of nivolumab (heavy, as listed by the source, chain 1 of 2): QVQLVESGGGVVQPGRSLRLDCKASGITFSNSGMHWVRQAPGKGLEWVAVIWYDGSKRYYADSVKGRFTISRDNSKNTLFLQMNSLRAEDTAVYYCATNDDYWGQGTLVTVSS
Chain of nivolumab (light, as listed by the source, chain 2 of 2): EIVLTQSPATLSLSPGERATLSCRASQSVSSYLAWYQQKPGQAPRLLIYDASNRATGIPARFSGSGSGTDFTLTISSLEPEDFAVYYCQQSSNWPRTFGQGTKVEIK

Kd [1] | Kd [2] | Kd [3] | Kd [4] | fold change in EC50 (CHO-K1 Fut8 KO against wild-type CHO-K1) [5] | PD-1/PD-L1 reporter assay (Jurkat-Lucia TCR-hPD-1 with Raji-APC-hPD-L1, luciferase): blockade of PD-1:PD-L1, fold change of IC50, Jurkat cells pretreated with the fucose inhibitor against untreated [6] | IC50 [7] | Kd [8] | IC50 [9] | IC50 [10] | PD-1/PD-L1 reporter assay (Jurkat-Lucia TCR-hPD-1 with Raji-APC-hPD-L1, luciferase): blockade of PD-1:PD-L1, fold change of IC50, Jurkat cells pretreated with the fucose inhibitor against untreated [11] | Molecule
2.95 nM | 3.41 nM |  |  |  |  |  |  |  |  |  | recombinant PD-1 (extracellular portion of human PD-1, residues 24-167) (from UniProt Q15116 24-167) (domain or fragment)
87.1 nM | 380 nM | 20.8 nM | 3.67 nM |  |  |  |  |  |  |  | non-fucosylated recombinant PD-1 (PD-1 NF) (from UniProt Q15116 24-167) (domain or fragment)
 |  |  |  | 3 fold | 2.8 fold | 1.5 nM | 449 nM | 18 nM | 5.6 nM |  | camrelizumab (antibody, V domains shown, Whole therapeutic anti-human PD-1 antibody; a human IgG4 isotype was the control and anti-human IgG4 or anti-human IgG the detection reagent; The PDB entry may hold only the variable part; source: bought: Selleck Chemicals) VH: EVQLVESGGGLVQPGGSLRLSCAASGFTFSSYMMSWVRQAPGKGLEWVATISGGGANTYYPDSVKGRFTISRDNAKNSLYLQMNSLRAEDTAVYYCARQLYYFDYWGQGTTVTVSS VL: DIQMTQSPSSLSASVGDRVTITCLASQTIGTWLTWYQQKPGKAPKLLIYTATSLADGVPSRFSGSGSGTDFTLTISSLQPEDFATYYCQQVYSIPWTFGGGTKVEIK
 |  |  |  | 1.3 fold |  | 0.6 nM | 260 nM | 1.4 nM | 2.6 nM | 2.4 fold | cemiplimab (antibody, V domains shown, Whole therapeutic anti-human PD-1 antibody; The PDB entry may hold only the variable part; source: bought: Selleck Chemicals) VH: EVQLLESGGVLVQPGGSLRLSCAASGFTFSNFGMTWVRQAPGKGLEWVSGISGGGRDTYFADSVKGRFTISRDNSKNTLYLQMNSLKGEDTAVYYCVKWGNIYFDYWGQGTLVTVSS VL: DIQMTQSPSSLSASVGDSITITCRASLSINTFLNWYQQKPGKAPNLLIYAASSLHGGVPSRFSGSGSGTDFTLTIRTLQPEDFATYYCQQSSNTPFTFGPGTVVDFR
